± gives the standard deviation.

The series in a line: protein stability index of a GFP-peptide fusion (GPS, HEK-293T) (PSI 1-6); higher = more stable.
Where [1] appears, read: treatment: DMSO, c terminus: a fixed tail appended.
Setting [2] is: treatment: MLN4924 1 uM, 8 h, c terminus: a fixed tail appended.
[3] abbreviates: treatment: DMSO, c terminus: native.
Where [4] appears, read: treatment: MLN4924 1 uM, 8 h, c terminus: native.
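Also: 24-mer peptide tiles fused after GFP, lentivirally expressed, FACS-sorted into six equal bins by GFP/DsRed ratio, decoded by Illumina sequencing, PSI is the read-weighted mean bin number.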

For QEITEQQDIAQEISEAFSQRVGFG [CHMP4C], the protein stability index reads like this: under setting [1], 5.02 ± 0.14; under setting [2], 4.77 ± 0.38.

As for LGLPYYETSVFDQFGIKDVFDNAI [RHOBTB1], the protein stability index is 2.34 ± 0.28 under setting [1] and 2.45 ± 0.42 under setting [2].

Regarding LSRKVAELVHFLLLKYRAREPVTK [MAGEA3], the protein stability index was 2.97 ± 0.42 under setting [1] and 2.44 ± 0.43 under setting [2].

As for KDGKAFHPTYEEKLKLVALHKQVL [ACBD3], the protein stability index is 2.68 ± 0.33 under setting [1] and 2.65 ± 0.11 under setting [2].

On to EQNIIPSATNVTCYYQPAPYVSDG [TENT5C], for which the protein stability index turned out to be 3.43 ± 0.4 under setting [1] and 3.63 ± 0.32 under setting [2].

Sequence SLASASPPLSGRSTPKLTSRSAAQ [PPFIA4] registered a protein stability index under setting [1] of 4.5 ± 0.31 and a protein stability index under setting [2] of 4.6 ± 0.14.

On to AQRVRAAMFPETLDEGMQIPSTQF [CTNNB1], for which the protein stability index was 3.62 ± 0.23 under setting [1] and 3.65 ± 0.16 under setting [2].

In the case of CTDKENALKLFPVQPCSAVHLLLK [FAM189A2], the protein stability index under setting [1] was 2.58 ± 0.23 and the protein stability index under setting [2] was 2.7 ± 0.43.

TQSNRTSRLIGKKMNRSVSLTIY [WEE1] registered a protein stability index under setting [3] of 2.19 ± 0.14 and a protein stability index under setting [4] of 2.27 ± 0.15.

LGPAFRGLKGRTLYPAVSAVWGQC [SPSB2] returned a protein stability index under setting [1] of 2.17 ± 0.22 and a protein stability index under setting [2] of 2.16 ± 0.18.

As to SFVVLLYILDNETNFVVQVSVFIG [CLPTM1], the protein stability index under setting [1] is 3.15 ± 0.41 and the protein stability index under setting [2] was found to be 3.39 ± 0.56.

On to DLINKMLTINPAKRITASEALKHP [CAMK2D], for which the protein stability index was determined as 2.49 ± 0.31 under setting [1] and 2.64 ± 0.32 under setting [2].

Take GIIPYAGIDLAVYETLKNAWLQHY [SLC25A25]: the protein stability index reads like this: under setting [1], 2.6 ± 0.48; under setting [2], 2.65 ± 0.67.

As to NIGDSSSGLIQTVFISSYMVLAPV [SPNS1], the protein stability index was 3.12 ± 0.32 under setting [1] and 2.67 ± 0.38 under setting [2].

For the sequence RLFLDGEEEKEWAFEESKIDEHHF [AASDHPPT], the protein stability index turned out to be 4.37 ± 0.26 under setting [1] and 4.42 ± 0.21 under setting [2].

Turning to TMLATRNFSAAKSLLKKPDGVKES [CAMK2D], the protein stability index was found to be 4.36 ± 0.067 under setting [1] and 4.33 ± 0.51 under setting [2].

Regarding VLGAHRGHPVGLALEAAVHVQKLS [TRIM14], the protein stability index under setting [1] was 2.63 ± 0.3 and the protein stability index under setting [2] was determined as 2.91 ± 0.26.

With YSGAYGASVSDEELKRRVAEELAL [CHCHD3], the protein stability index by setting is: under setting [1], 3.11 ± 0.52; under setting [2], 3.53 ± 1.1.

Turning to VGRIIAPLLSGVAQEVSPCGPPSL [MFSD9], the protein stability index was 2.72 ± 0.23 under setting [1] and 2.65 ± 0.29 under setting [2].

Turning to SKLLLSGTADGADLRTVDPETQAR [ANKRD17], the protein stability index by setting is: under setting [1], 5.08 ± 0.35; under setting [2], 5.13 ± 0.26.

For the sequence LVVIQQPSLDSRQRLDYEREIQPT [SPRY1], the protein stability index runs as follows: under setting [1], 2.96 ± 0.2; under setting [2], 3.1 ± 0.11.

For EWLLDAPELPEGHLEDWLEKRAKR [ZMAT5], the protein stability index is, setting by setting: under setting [1], 4.95 ± 0.52; under setting [2], 4.79 ± 0.15.

On to KKKKIGFYFEVCGMMVESVNAKTL [PCDHGA10], for which the protein stability index is 2.28 ± 0.68 under setting [1] and 2.18 ± 0.38 under setting [2].

For the sequence EDGKRCVAVDYCASENHGCEHECV [MATN2], the protein stability index by setting is: under setting [1], 4.92 ± 0.14; under setting [2], 4.88 ± 0.7.

For PGAPGMPPGIPPLMPGVPPLMPGM [ZNF207], the protein stability index was 3.71 ± 0.13 under setting [1] and 3.62 ± 0.24 under setting [2].

Turning to GLFFPPQLNGTANDTAGPELPDPL [NFE2L1], the protein stability index under setting [1] came to 4.29 ± 0.27 and the protein stability index under setting [2] turned out to be 4.45 ± 0.23.

As to FHALVREIRRKEKEAVLAMEKKSK [RIT1], the protein stability index was found to be 2.52 ± 0.6 under setting [1] and 3.07 ± 0.57 under setting [2].

With LKVAAESCKADVVELLLSHADCDR [FEM1B], the protein stability index by setting is: under setting [1], 3.16 ± 0.19; under setting [2], 3.13 ± 0.36.

In the case of HMAKERAHSTASHSSSNSEDTEM [PDZK1], the protein stability index was determined as 5.48 ± 0.26 under setting [3] and 5.39 ± 0.27 under setting [4].

As for SFRELLTFFCTNATIHGAIRLVCS [SCNN1D], the protein stability index worked out at 2.85 ± 0.36 under setting [1] and 2.99 ± 0.39 under setting [2].

Consider EGFADGFVKALDDLHKMNHVTPPN [JUNB], for which the protein stability index is, setting by setting: under setting [1], 4.12 ± 0.22; under setting [2], 4.17 ± 0.3.

On to AEMLRFGDRMFYRDWWNSTSFSNY [SOAT2], for which the protein stability index runs as follows: under setting [1], 2.28 ± 0.52; under setting [2], 2.02 ± 0.041.

Turning to VRVCDLLLKKKPPQQQHHKAKRNR [ANKRD17], the protein stability index is, setting by setting: under setting [1], 3.33 ± 0.39; under setting [2], 3.38 ± 0.22.

ARMLREYQELMSLKLALDMEIATY [KRT71]: the protein stability index turned out to be 2.19 ± 0.62 under setting [1] and 2.44 ± 0.21 under setting [2].

As to DKRGETTSASLLNAGLSHTEYQIV [SLC2A12], the protein stability index under setting [1] turned out to be 3.69 ± 0.17 and the protein stability index under setting [2] is 3.91 ± 0.26.

PMLETASKLLLSGTADGADLRTVD [ANKRD17]: the protein stability index turned out to be 4.68 ± 0.077 under setting [1] and 4.67 ± 0.22 under setting [2].

Regarding LEGVVSQIDAVGSKLKMLERKGWL [PKD2L1], the protein stability index by setting is: under setting [1], 2.63 ± 0.37; under setting [2], 2.77 ± 0.24.

For the sequence NPQENRWHTIAPMGTRRKHLGCAV [KLHL20], the protein stability index reads like this: under setting [1], 3.1 ± 0.13; under setting [2], 3.11 ± 0.095.

Sequence AVGYQPEYSKFCRMSYQDPAQLSC [NFE2L1] showed a protein stability index under setting [1] of 2.63 ± 0.41 and a protein stability index under setting [2] of 2.2 ± 0.44.

QAFLDELESSDLPVALLLAQHKDR [MNAT1] had a protein stability index under setting [1] of 3.53 ± 0.13 and a protein stability index under setting [2] of 3.49 ± 0.21.

Regarding YFFLCQPFREILCKKLHIPLKAQN [P2RY14], the protein stability index reads like this: under setting [1], 2.62 ± 0.75; under setting [2], 1.99 ± 0.25.

SVDEQNALREVYAHAVLGQHSHVV [WEE1] had a protein stability index under setting [1] of 3.42 ± 0.14 and a protein stability index under setting [2] of 3.47 ± 0.33.

Take EAEEEKGEKEEEDKDDEEKPKIED [HSP90AB1]: the protein stability index reads like this: under setting [1], 5.55 ± 0.35; under setting [2], 5.6 ± 0.38.

On to KDAPCYESDTDIYETVAAATSEST [DRICH1], for which the protein stability index was 5.4 ± 0.15 under setting [1] and 5.38 ± 0.1 under setting [2].

YANGGLNYSYRGYGALSSNLQPPA [NOL4L] registered a protein stability index under setting [1] of 2.49 ± 0.36 and a protein stability index under setting [2] of 2.94 ± 0.35.

In the case of SGSGGTVAPATMGSARSHASSRAS [ZBTB22], the protein stability index was 4.77 ± 0.18 under setting [1] and 4.68 ± 0.24 under setting [2].

For HDGKPSEGSYRIHVLHHGTGKWYE [USP39], the protein stability index reads like this: under setting [1], 2.71 ± 0.2; under setting [2], 2.88 ± 0.16.

RTLPAFQVPYPPRQLLRDFQSRLP [P3H4]: the protein stability index worked out at 2.76 ± 0.2 under setting [1] and 2.92 ± 0.54 under setting [2].

With VLLMAICIVSPDRPGVQDAALIEA [VDR], the protein stability index by setting is: under setting [1], 2.8 ± 0.33; under setting [2], 2.77 ± 0.66.

SSKSDADSGFLGLRPTSVDPALRR [NOP53] yielded a protein stability index under setting [1] of 4.51 ± 0.2 and a protein stability index under setting [2] of 4.51 ± 0.22.

As for CKLILSLEPDEDPLCMLLLIDHLA [TCF25], the protein stability index was 2.82 ± 0.53 under setting [1] and 2.95 ± 0.79 under setting [2].

For VNYLPQNMTQDEFKSLFGSIGDIE [ELAVL3], the protein stability index by setting is: under setting [1], 3.8 ± 0.11; under setting [2], 4 ± 0.27.

Values taken from the supplement of paper PMC10567573.
